Source: patent US20020110800A1, “Use of SHP-1 and SHP-2 to detect compounds involved in neuronal survival” (McGill University, priority 1997, published 2002)

System: SHP-2
Experiment: BDNF-stimulated association of SHP-2 with tyrosine-phosphorylated proteins in cortical neurons
Format: cell-based, rat
Excerpt: FIG. 5 is a Western blot showing that BDNF stimulates the association of SHP-2 with tyrosine phosphorylated proteins in cortical neurons. Lysates prepared from cortical neurons treated with or without BDNF were immunoprecipitated with anti-SHP-2 antibody and probed with anti-pTyr antibody.
To determine the mechanism whereby the neutrotrophins stimulate the survival and growth of normal and injured neurons, we have asked whether the phosphoprotein phosphatases SHP-1 and SHP-2 play a role in the differentiation and survival of primary neurons, focusing our studies on cultured rat sympathetic cervical ganglion (SCG) and cortical neurons in order to determine the exact nature of this regulation.
Immunoprecipitations and immunoblotting were performed as previously described (Kaplan et al., Science, 252:554-558, 1991). […]

B1: BDNF: brain-derived neurotrophic factor, a neurotrophin, obtained from Peprotech (protein, UniProt P23560 19-247, looked up)
Neurotrophic factor BDNF …: APMKEANIRGQGGLAYPGVRTHGTLESVNGPKAGSRGLTSLADTFEHVIEELLDEDQKVRPNEENNKDADLYTSRVMLSSQVPLEPPLLFLLEEYKNYLDAANMSMRVRRHSDPARRGELSVCDSISEWVTAADKKTAVDMSGGTVTVLEKVPVSKGQLKQYFYETKCNPMGYTKEGCRGIDKRHWNSQCRTTQSYVRALTMDSKKRIGWRFIRIDTSCVCTLTIKRGR
association of tyrosine-phosphorylated proteins with SHP-2: causes the association of tyrosine-phosphorylated proteins with SHP-2
